From patent US20210238260A1

What follows are substances tested against Antithrombin III (plasma purified human AT-III), in complex with unfractionated full-length heparin (human) (UniProt P01008) (assay: inhibition of FIXa by AT-III/UFH, residual activity on Mesyl-D-CHG-Gly-Arg-AMC).

kapp (second-order rate constant for inhibition) [M⁻¹ s⁻¹] | Substance
1.6e+07 | BeneFIX Coagulation FIX (T148A), activated (FIXa) (from UniProt P00740 47-191; P00740 227-461) (enzyme)
2.4e+07 | Catalyst Biosciences WT FIXa (from UniProt P00740 47-191; P00740 227-461) (enzyme)
2.7e+06 | FIXa D85N/D203N/F205T (from UniProt P00740 47-191; P00740 227-461) (enzyme)
7e+06 | FIXa D104N/K106S/N260S (from UniProt P00740 47-191; P00740 227-461) (enzyme)
210000 | FIXa D104N/K106S/R318Y/R338E/E410N (from UniProt P00740 47-191; P00740 227-461) (enzyme)
810000 | FIXa D203N/F205T (from UniProt P00740 47-191; P00740 227-461) (enzyme)
2e+06 | FIXa D203N/F205T/E410N (from UniProt P00740 47-191; P00740 227-461) (enzyme)
1.1e+06 | FIXa D203N/F205T/K228N (from UniProt P00740 47-191; P00740 227-461) (enzyme)
61000 | FIXa D203N/F205T/R318Y (from UniProt P00740 47-191; P00740 227-461) (enzyme)
860000 | FIXa D203N/F205T/R338A (from UniProt P00740 47-191; P00740 227-461) (enzyme)
360000 | FIXa D203N/F205T/R338E (from UniProt P00740 47-191; P00740 227-461) (enzyme)
2000 | FIXa D203N/F205T/R338E/R403E (from UniProt P00740 47-191; P00740 227-461) (enzyme)
1.2e+06 | FIXa K228N/R318Y (from UniProt P00740 47-191; P00740 227-461) (enzyme)
42000 | FIXa K228N/R338E/R403E (from UniProt P00740 47-191; P00740 227-461) (enzyme)
47000 | FIXa K293A/R338A/R403A (from UniProt P00740 47-191; P00740 227-461) (enzyme)
81000 | FIXa K293A/R403A (from UniProt P00740 47-191; P00740 227-461) (enzyme)
1.2e+06 | FIXa K293E (from UniProt P00740 47-191; P00740 227-461) (enzyme)
31000 | FIXa K293E/R338E/R403E (from UniProt P00740 47-191; P00740 227-461) (enzyme)
1.1e+06 | FIXa N260S (from UniProt P00740 47-191; P00740 227-461) (enzyme)

kapp (second-order rate constant for inhibition) [M⁻¹ s⁻¹] | Substance
230000 | FIXa R312Y (from UniProt P00740 47-191; P00740 227-461) (enzyme)
690000 | FIXa R318A (from UniProt P00740 47-191; P00740 227-461) (enzyme)
17000 | FIXa R318A/R403A (from UniProt P00740 47-191; P00740 227-461) (enzyme)
16000 | FIXa R318E (from UniProt P00740 47-191; P00740 227-461) (enzyme)
640000 | FIXa R318Y (from UniProt P00740 47-191; P00740 227-461) (enzyme)
1.1e+06 | FIXa R318Y/E410N (from UniProt P00740 47-191; P00740 227-461) (enzyme)
280000 | FIXa R318Y/R338E/E410N (from UniProt P00740 47-191; P00740 227-461) (enzyme)
1200 | FIXa R318Y/R338E/R403E (from UniProt P00740 47-191; P00740 227-461) (enzyme)
840000 | FIXa R338A/R403A (from UniProt P00740 47-191; P00740 227-461) (enzyme)
270000 | FIXa R338E (from UniProt P00740 47-191; P00740 227-461) (enzyme)
6.3e+06 | FIXa R338E/E410N (from UniProt P00740 47-191; P00740 227-461) (enzyme)
68000 | FIXa R338E/R403E (from UniProt P00740 47-191; P00740 227-461) (enzyme)
130000 | FIXa R338E/R403E/E410N (from UniProt P00740 47-191; P00740 227-461) (enzyme)
1.4e+06 | FIXa R403A (from UniProt P00740 47-191; P00740 227-461) (enzyme)
110000 | FIXa R403E (from UniProt P00740 47-191; P00740 227-461) (enzyme)
4.8e+06 | FIXa R403E/E410N (from UniProt P00740 47-191; P00740 227-461) (enzyme)
1.6e+07 | FIXa T148A (from UniProt P00740 47-191; P00740 227-461) (enzyme)
1000 | FIXa Y155F/R318Y/R338E/R403E (from UniProt P00740 47-191; P00740 227-461) (enzyme)
32000 | FIXa Y155F/R338E/R403E/E410N (from UniProt P00740 47-191; P00740 227-461) (enzyme)

What follows are substances tested against plasma purified human AT-III (antithrombin III) in complex with unfractionated heparin (human) (UniProt P01008) (assay: residual FIXa activity on Mesyl-D-CHG-Gly-Arg-AMC after timed incubation with AT-III/UFH (0-500 nM AT-III, 1 uM UFH); kapp from K0.5).

kapp (apparent second-order rate constant for inhibition) [M⁻¹ s⁻¹] | Substance
680 | FIXa-D104N/K106S/K228N/K247N/N249S/R318Y/R338E/R403E/E410N (from UniProt P00740 47-191; P00740 227-461) (enzyme)
1.7e+06 | FIXa-D104N/K106S/K247N/N249S/N260S (from UniProt P00740 47-191; P00740 227-461) (enzyme)
2100 | FIXa-D104N/K106S/N260S/R318Y/R338E/R403E/E410N (from UniProt P00740 47-191; P00740 227-461) (enzyme)
9100 | FIXa-D104N/K106S/R318Y/R338E/T343R/R403E/E410N (from UniProt P00740 47-191; P00740 227-461) (enzyme)
1100 | FIXa-K228N/K247N/N249S/R318Y/R338E/R403E/E410N (from UniProt P00740 47-191; P00740 227-461) (enzyme)
1300 | FIXa-K247N/N249S/N260S/R318Y/R338E/R403E/E410N (from UniProt P00740 47-191; P00740 227-461) (enzyme)
310 | FIXa-K247N/N249S/R318Y/R338E/R403E (from UniProt P00740 47-191; P00740 227-461) (enzyme)
2700 | FIXa-K247N/N249S/R318Y/R403E/E410N (from UniProt P00740 47-191; P00740 227-461) (enzyme)
21000 | FIXa-K247N/N249S/R338E/R403E/E410N (from UniProt P00740 47-191; P00740 227-461) (enzyme)
4400 | FIXa-N260S/R318Y/R338E/R403E/E410N (from UniProt P00740 47-191; P00740 227-461) (enzyme)
720000 | FIXa-R318Y/R338E/E410S (from UniProt P00740 47-191; P00740 227-461) (enzyme)
1100 | FIXa-R318Y/R338E/N346D/R403E/E410N (from UniProt P00740 47-191; P00740 227-461) (enzyme)
2800 | FIXa-R318Y/R338E/N346Y/R403E/E410N (from UniProt P00740 47-191; P00740 227-461) (enzyme)
3800 | FIXa-R318Y/R338E/R403E/E410N/T412A (from UniProt P00740 47-191; P00740 227-461) (enzyme)
2900 | FIXa-R318Y/R338E/R403E/E410N/T412V (from UniProt P00740 47-191; P00740 227-461) (enzyme)
1600 | FIXa-R318Y/R338E/R403E/T412A (from UniProt P00740 47-191; P00740 227-461) (enzyme)
5100 | FIXa-R318Y/R338E/T343R/N346D/R403E/E410N (from UniProt P00740 47-191; P00740 227-461) (enzyme)
11000 | FIXa-R318Y/R338E/T343R/N346Y/R403E/E410N (from UniProt P00740 47-191; P00740 227-461) (enzyme)
32000 | FIXa-R318Y/R338E/T343R/R403E/E410N (from UniProt P00740 47-191; P00740 227-461) (enzyme)
350000 | FIXa-R318Y/R338E/T412A (from UniProt P00740 47-191; P00740 227-461) (enzyme)
7900 | FIXa-R318Y/R338E/Y345A/R403E/E410N (from UniProt P00740 47-191; P00740 227-461) (enzyme)
1.3e+06 | FIXa-T343R/N346D (from UniProt P00740 47-191; P00740 227-461) (enzyme)
4.2e+06 | FIXa-T343R/N346Y (from UniProt P00740 47-191; P00740 227-461) (enzyme)
